Results published in patent publication US8067220B2, “Alternative crystal form of monoacylglycerol lipase (MGLL)” (Janssen Pharmaceutica N.V., priority 2008, dated 2011).

Assays:
[1] = tested on: MGLL; test: Hydrolysis of coumarin arachidonate (C-A), apparent kcat/KM at [S]<<KM; assay type: biochemical, human; conditions: estimated; limited by solubility of C-A
From the text: (§1) A small fluorescent substrate, 4-methyl coumarin butyrate (4MC-B) was used to compare the activity of the engineered mutants to the activity of wt-MGLL (hMGLL 1-303) (SEQ ID NO: 3). The catalytic efficiency (kcat/KM) for the hydrolysis of the 4MC-B was similar for wt-MGLL (hMGLL 1-303) (SEQ ID NO: 3) and all MGLL mutants tested (Table 2). A larger more aliphatic fluorescent substrate, Coumarin Arachidonate (C-A), structurally more closely related to the MGLL natural substrate, 2-AG, was used to compare the activity of wt-MGLL (hMGLL 1-303) (SEQ ID NO: 3) to TEV protease cleaved mut-MGLL (hMGLL 1-303 L169S, L176S) (SEQ ID NO: 5).
(§2) The Michaelis-Menten parameters for the hydrolysis of 4-methylcoumarin butyrate (4MC-B) and coumarin arachidonate (C-A) substrate were determined using 4-5 nM of MGLL in 20 mM Pipes pH 7 and 150 mM NaCl at 37° C. The change in fluorescence due to substrate hydrolysis was monitored using excitation/emission wavelengths of 335/440 in a Safire II instrument from Tecan. The hyperbolic rates versus substrate concentration curves for the hydrolysis of 4MC-B were fit to the Michaelis-Menten equation using Excel.
The apparent kcat/Km ratio for the hydrolysis of C-A was determined at [S]<<KM. […] The kcat/KM values reported are the average from independent values determined from five substrate concentrations ranging from 700 to 40 nM.

[2] = Circular dichroism (CD) structural analysis; assay type: physicochemical; conditions: 5 μM protein, 10 mM cacodylic acid pH 7, 140 mM NaCl, 200 to 260 nm
Description: Circular dichroism experiments were performed on a Circular Dichroism Spectrometer Model 202 from Aviv Instruments Inc. The CD scans of wt-MGLL (hMGLL 1-303) (SEQ ID NO: 3) and TEV protease cleaved mut-MGLL (hMGLL 1-303 L169S, L176S) (SEQ ID NO: 5) (5 μM protein in 10 mM cacodylic acid pH 7 and 140 mM NaCl) were measured from 200 to 260 nm. Temperature melts were monitored at 210 nm.

[3] = Size exclusion chromatography of protein purified in the absence of detergent; assay type: physicochemical
Description: A pilot purification of wt-MGLL (hMGLL 1-303) (SEQ ID NO: 3), performed in the complete absence of detergent, generated no protein (data not shown). A second purification of wt-MGLL (hMGLL 1-303) (SEQ ID NO: 3) was done with detergent in the lysis buffer only. Frozen cell pellets for wt-MGLL (hMGLL 1-303) (SEQ ID NO: 3) were thawed, resuspended, and lysed in Bugbuster® lysis buffer for 1 hour at 4° C. Bugbuster® lysis buffer is a proprietary lysis buffer from […] that contains detergent. The lysate was clarified by centrifugation at 40,000×g for 1 hr. No detergent was added at this point or during the rest of the purification. From this point forward, the purification protocol and buffers were the same as described below for mut-MGLL. An average of 2.2 mg of wt-MGLL (hMGLL 1-303) (SEQ ID NO: 3) per liter of cell culture was obtained.
Mutant MGLL (mut-MGLL) constructs were purified in the absence of detergent. […] Fractions were analysed by SDS-PAGE. […] Purification yields were determined by Bradford assay using the protein assay kit from BioRad according to manufacturer's instruction with BSA as a standard (Bradford 1976).

[4] = tested on: MGLL; test: Michaelis-Menten kinetics, hydrolysis of 4-methylcoumarin butyrate (4MC-B); assay type: biochemical, human; conditions: substrate 4MC-B; 4-5 nM MGLL, 20 mM Pipes pH 7, 150 mM NaCl, 37° C.; average of 2 or 4 assays
From the text: as §1, §2

[5] = tested on: MGLL; test: Thermofluor thermal stability assay; assay type: physicochemical, human; conditions: Thermofluor, 1,8-ANS; for midpoint of the melting transition (Tm): 0.05 mg/ml protein, Pipes pH 7
From the text: (§3) Thermofluor® assays detect small changes in the intrinsic melting temperature of proteins based on binding of ligands. Compounds that interact preferentially with the native form of the protein will increase the Tm, the temperature at which half of the protein is unfolded (Pantoliano et al. 2001). The technique monitors changes in the fluorescent intensity of dyes such as 1-anilinonaphthalene-8-sulfonic acid (1,8-ANS). The fluorescent dyes are quenched in aqueous environments but increase in fluorescence on binding to the hydrophobic core of denatured proteins.
as §3, with “The Thermofluor®” for “Thermofluor®”, “assay is a powerful tool to screen for small molecule inhibitors interacting with a protein's active site or allosteric site. The assay detects” for “assays detect”
Thermofluor® assays were conducted to characterize wt-MGLL (hMGLL 1-303) (SEQ ID NO: 3) and mut-MGLL (hMGLL 1-303 L169S, L176S) and evaluate if the MGLL mutants could be used for high-throughput screening using Thermofluor®. Three microliters of protein at a concentration of 0.05 mg/ml in 50 mM Pipes pH 7, 200 mM NaCl, 100 μM 1,8-ANS, and 0.001% Tween was added to pre-dispensed compound plates. Wells were overlaid with silicone oil (1 μL, Fluka, type DC 200) to prevent evaporation. Final compound concentrations varied from 150 to 0.15 μM. Assay plates were heated at a rate of 1° C./min for all experiments over a temperature range sufficient to measure protein unfolding. Fluorescence was measured by continuous illumination with UV light (Hamamatsu LC6) supplied via fiber optic and filtered through a custom band-pass filter (380-400 nm; >6 OD cutoff). Fluorescence emission was detected by measuring light intensity using a CCD camera (Sensys, Roper Scientific) filtered to detect emission at 500±25 nm, resulting in simultaneous and independent readings of all 384 wells. One or more images were collected at each temperature, and the sum of the pixel intensity in a given area of the assay plate was recorded vs temperature, and fit to standard equations to yield the Tm.

CCCCC/C=C/C/C=C\C/C=C/C/C=C/CCCC(=O)Oc1ccc2ccc(=O)oc2c1 [C-A, Coumarin Arachidonate]
Km [1]: > 30 µM

B1: mut-MGLL. 1-303, L169S, L176S: human MGLL 1-303 with cap-domain mutations L169S, L176S (protein)
chain: GMPEESSPRRTPQSIPYQDLPHLVNADGQYLFCRYWKPTGTPKALIFVSHGAGEHSGRYEELARMLMGLDLLVFAHDHVGHGQSEGERMVVSDFHVFVRDVLQHVDSMQKDYPGLPVFLLGHSMGGAIAILTAAERPGHFAGMVLISPLVLANPESATTFKVLAAKVLNSVLPNLSSGPIDSSVLSRNKTEVDIYNSDPLICRAGLKVCFGIQLLNAVSRVERALPKLTVPFLLLQGSADRLCDSKGAYLLMELAKSQDKTLKIYEGAYHVLHKELPEVTNSVFHEINMWVSQRTATAGTASPP
CD scan compared with wt-MGLL purified in the presence of detergent [2]: similar | monomer by size exclusion [3]: 90% | Kcat [4]: 0.8 s⁻¹ | Km [4]: 136 µM | quality of Thermofluor melting transition [5]: strong transition | midpoint of the melting transition (Tm) [5]: 56.7 °C

B2: wt-MGLL.1-303: wild-type human MGLL isoform 2, amino acids 1-303, with N-terminal His tag and TEV site (protein)
chain: MVDHHHHHHENLYFQGMPEESSPRRTPQSIPYQDLPHLVNADGQYLFCRYWKPTGTPKALIFVSHGAGEHSGRYEELARMLMGLDLLVFAHDHVGHGQSEGERMVVSDFHVFVRDVLQHVDSMQKDYPGLPVFLLGHSMGGAIAILTAAERPGHFAGMVLISPLVLANPESATTFKVLAAKVLNLVLPNLSLGPIDSSVLSRNKTEVDIYNSDPLICRAGLKVCFGIQLLNAVSRVERALPKLTVPFLLLQGSADRLCDSKGAYLLMELAKSQDKTLKIYEGAYHVLHKELPEVTNSVFHEINMWVSQRTATAGTASPP
modifications: N-terminal His tag and TEV site
notes: wild-type human MGLL isoform 2, amino acids 1-303, with N-terminal His tag and TEV site
aggregation by size exclusion [3]: 100% | Kcat [4]: 1.13 s⁻¹ | Km [4]: 162 µM | quality of Thermofluor melting transition [5]: very poor transition | midpoint of the melting transition (Tm) [5]: 58 °C
